Test results as given in IntAct's records for PubMed 38225382.

Legend:
[1] = target: tri37_human TRIM37 (UniProt O94972)
[2] = target: pex3_human PEX3 (UniProt P56589)
pex3_human PEX3, sequence (P56589 whole entry): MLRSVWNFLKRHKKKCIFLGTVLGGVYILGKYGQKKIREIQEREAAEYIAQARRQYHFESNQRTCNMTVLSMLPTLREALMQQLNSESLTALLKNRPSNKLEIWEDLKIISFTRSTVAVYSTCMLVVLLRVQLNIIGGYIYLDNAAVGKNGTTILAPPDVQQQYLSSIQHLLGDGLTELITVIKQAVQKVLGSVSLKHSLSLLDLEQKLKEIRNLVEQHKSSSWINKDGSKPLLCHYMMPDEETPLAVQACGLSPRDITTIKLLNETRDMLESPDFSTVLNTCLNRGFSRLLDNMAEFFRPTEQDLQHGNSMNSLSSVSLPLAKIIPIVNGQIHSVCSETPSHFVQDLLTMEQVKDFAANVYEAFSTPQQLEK

tri37_human TRIM37, sequence (O94972 whole entry): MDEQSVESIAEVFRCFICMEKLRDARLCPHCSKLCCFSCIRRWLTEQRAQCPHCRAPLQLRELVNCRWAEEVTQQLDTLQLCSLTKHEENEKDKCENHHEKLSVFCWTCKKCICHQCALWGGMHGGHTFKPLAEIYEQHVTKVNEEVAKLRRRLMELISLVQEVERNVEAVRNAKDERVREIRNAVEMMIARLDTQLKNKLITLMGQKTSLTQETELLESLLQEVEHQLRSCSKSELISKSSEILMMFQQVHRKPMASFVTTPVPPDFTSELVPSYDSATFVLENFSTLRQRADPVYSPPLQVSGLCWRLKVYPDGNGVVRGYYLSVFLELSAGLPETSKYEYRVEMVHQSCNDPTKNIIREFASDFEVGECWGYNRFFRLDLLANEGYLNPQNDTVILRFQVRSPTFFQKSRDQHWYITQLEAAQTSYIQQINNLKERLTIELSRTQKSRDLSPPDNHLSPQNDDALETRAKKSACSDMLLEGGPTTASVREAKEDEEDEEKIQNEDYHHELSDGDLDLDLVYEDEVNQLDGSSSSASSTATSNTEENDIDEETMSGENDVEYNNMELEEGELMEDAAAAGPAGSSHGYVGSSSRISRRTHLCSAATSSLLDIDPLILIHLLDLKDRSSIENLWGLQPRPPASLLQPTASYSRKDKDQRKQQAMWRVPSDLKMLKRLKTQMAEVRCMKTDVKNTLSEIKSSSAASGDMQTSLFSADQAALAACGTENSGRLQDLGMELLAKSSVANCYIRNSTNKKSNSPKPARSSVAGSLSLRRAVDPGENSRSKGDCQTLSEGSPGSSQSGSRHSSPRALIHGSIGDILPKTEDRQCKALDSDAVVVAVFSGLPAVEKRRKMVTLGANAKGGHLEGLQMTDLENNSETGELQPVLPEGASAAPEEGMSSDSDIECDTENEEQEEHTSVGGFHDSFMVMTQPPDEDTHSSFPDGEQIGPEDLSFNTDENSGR
Peroxisomal membrane protein PEX16 (Homo sapiens), Q9Y5Y5 W189G, sequence (Q9Y5Y5 whole entry W189G): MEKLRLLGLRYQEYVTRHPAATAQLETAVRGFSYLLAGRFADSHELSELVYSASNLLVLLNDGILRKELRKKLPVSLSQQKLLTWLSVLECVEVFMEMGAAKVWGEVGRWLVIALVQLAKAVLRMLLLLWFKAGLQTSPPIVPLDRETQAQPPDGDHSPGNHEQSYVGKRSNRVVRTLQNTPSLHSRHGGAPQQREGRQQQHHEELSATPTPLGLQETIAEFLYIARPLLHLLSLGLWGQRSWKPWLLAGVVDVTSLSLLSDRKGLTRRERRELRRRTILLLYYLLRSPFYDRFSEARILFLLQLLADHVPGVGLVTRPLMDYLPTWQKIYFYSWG
Peroxisomal membrane protein PEX16 (Homo sapiens), Q9Y5Y5 K169A, sequence (Q9Y5Y5 whole entry K169A): as the sequence (Q9Y5Y5 whole entry W189G) above, with K169A, G189W counted along it

effect of a mutation on the interaction [1]	effect of a mutation on the interaction [2]	Substance
with no effect		Bifunctional polynucleotide phosphatase/kinase (Homo sapiens), Q96T60 P112R
with no effect		Bifunctional polynucleotide phosphatase/kinase (Homo sapiens), Q96T60 S114D
	with no effect	Peroxisomal membrane protein PEX16 (Homo sapiens), Q9Y5Y5 K169A
	with no effect	Peroxisomal membrane protein PEX16 (Homo sapiens), Q9Y5Y5 W189G
